Legend:
Assay in all cases: cell microarray
[1] = biological target: SARS-CoV-2 full length Spike expressed on cells (SARS-CoV-2, UniProt P0DTC2 14-1273)
IGF1 = IGF1 (human, UniProt P05019)
ADGRG7 = biological target: T1, ADGRG7 (human, UniProt Q96K78)
T1 sequence (looked up): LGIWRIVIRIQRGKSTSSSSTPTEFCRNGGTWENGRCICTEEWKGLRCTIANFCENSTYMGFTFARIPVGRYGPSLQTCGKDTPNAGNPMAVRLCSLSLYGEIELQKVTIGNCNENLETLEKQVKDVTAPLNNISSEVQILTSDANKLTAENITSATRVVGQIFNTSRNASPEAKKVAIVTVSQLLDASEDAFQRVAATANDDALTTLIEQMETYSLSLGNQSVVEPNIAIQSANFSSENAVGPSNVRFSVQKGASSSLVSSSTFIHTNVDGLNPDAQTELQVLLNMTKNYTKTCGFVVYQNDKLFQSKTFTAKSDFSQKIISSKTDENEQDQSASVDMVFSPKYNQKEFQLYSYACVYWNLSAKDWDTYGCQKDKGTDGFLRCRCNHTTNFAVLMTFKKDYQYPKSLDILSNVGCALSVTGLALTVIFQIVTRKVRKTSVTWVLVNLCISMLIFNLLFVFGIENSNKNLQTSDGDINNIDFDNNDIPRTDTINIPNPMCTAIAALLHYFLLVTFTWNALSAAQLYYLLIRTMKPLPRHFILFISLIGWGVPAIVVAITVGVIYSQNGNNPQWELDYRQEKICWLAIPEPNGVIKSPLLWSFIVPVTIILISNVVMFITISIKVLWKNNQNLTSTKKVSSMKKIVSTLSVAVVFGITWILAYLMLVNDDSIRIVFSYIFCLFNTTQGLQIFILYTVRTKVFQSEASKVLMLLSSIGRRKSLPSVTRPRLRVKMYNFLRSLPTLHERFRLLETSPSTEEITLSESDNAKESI

TTYH3 V1 = biological target: T2, TTYH3 V1 (human, UniProt Q9C0H2)
T2 sequence (looked up): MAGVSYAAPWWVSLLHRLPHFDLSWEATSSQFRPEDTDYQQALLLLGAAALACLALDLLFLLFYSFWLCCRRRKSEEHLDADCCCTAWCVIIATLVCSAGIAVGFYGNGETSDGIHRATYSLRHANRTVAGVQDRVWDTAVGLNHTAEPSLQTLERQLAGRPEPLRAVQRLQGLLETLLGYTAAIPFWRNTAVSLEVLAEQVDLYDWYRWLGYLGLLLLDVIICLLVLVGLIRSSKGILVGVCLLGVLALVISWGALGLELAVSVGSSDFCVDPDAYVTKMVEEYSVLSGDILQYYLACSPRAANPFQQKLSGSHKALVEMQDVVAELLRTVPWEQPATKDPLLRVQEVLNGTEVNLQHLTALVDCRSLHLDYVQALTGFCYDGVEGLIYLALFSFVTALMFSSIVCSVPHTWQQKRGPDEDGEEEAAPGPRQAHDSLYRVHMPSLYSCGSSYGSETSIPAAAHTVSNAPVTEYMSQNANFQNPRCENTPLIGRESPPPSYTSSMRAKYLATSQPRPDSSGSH

SIGLEC14 = biological target: T3, SIGLEC14 (human, UniProt Q08ET2)
T3 sequence (looked up): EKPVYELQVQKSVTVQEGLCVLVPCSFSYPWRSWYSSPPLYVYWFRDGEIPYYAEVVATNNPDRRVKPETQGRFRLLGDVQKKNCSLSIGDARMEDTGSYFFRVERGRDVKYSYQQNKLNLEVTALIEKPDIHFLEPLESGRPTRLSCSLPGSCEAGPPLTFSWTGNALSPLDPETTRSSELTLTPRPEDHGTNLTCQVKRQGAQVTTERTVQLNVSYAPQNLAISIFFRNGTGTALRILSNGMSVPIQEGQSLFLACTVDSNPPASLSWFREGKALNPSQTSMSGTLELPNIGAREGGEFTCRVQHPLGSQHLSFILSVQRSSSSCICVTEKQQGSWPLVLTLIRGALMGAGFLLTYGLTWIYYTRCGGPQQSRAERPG

Measured: binding result

B1: Fc LALA-PG only construct with the ACE2 domain omitted (other)
chain: EPKSCDKTHTCPPCPAPEAAGGPSVFLFPPKPKDTLMISRTPEVTCVVVDVSHEDPEVKFNWYVDGVEVHNAKTKPREEQYNSTYRVVSVLTVLHQDWLNGKEYKCKVSNKALGAPIEKTISKAKGQPREPQVYTLPPSREEMTKNQVSLTCLVKGFYPSDIAVEWESNGQPENNYKTTPPVLDSDGSFFLYSKLTVDKSRWQQGNVFSCSVMHEALHNHYTQKSLSLSPGK
notes: also called control Fc (LALA-PG)
no binding: all assays above
